Columns and labels:
[1] = pH 7
[2] = pH 7; remark: listed apart in the source

B1: TsmE (protein)
chain: METDKKTGTSRRSFVKAAGTGAIGIATLPLSTATAFAETDNVELAQSKRKVVLAEQGSFYIGGRTVTGPGKFDPSKPVIPYSNEGATFYINQMYVNFQAPVRPRGLPLVFWHGGGLTGHIWESTPDGRPGFQTLFVQDRHTVYTIDQPGRGRGNIPTFNGPFGQLEEESIVNTVTGNSSKEGAWVRDRLGPAPGQFFENSQFPRGYEDNYFKEMGFSPSISSDEIVDAVVKLVTHIGPCVLVTHSASGVLGMRVATHAKNVRGIVAYEPATSIFPKGKVPEIPPLADKKSQIFPPFEIQESYFKKLAKIPIQFVFGDNIPKNPKSAYWFLDWWRVTRYAHSLSLEAINKLGGQASLLDLPTAGLRGNTHFPFTDRNNVQVASLLSDFLGKHGLDQNES
modifications: Methylophilus sp. S113; Thiefensulfuron Hydrolase TSME
specific enzyme activity of TsmE to haloxyfop-R-methyl [1]: 55 U/mg protein | specific enzyme activity of TsmE to thifensulfuron [2]: 67 U/mg protein
